We go through one molecule from patent publication US6599706B1, “Recombinant PR-3 and assays employing the same” (Chiron Corporation, priority 1994, dated 2003).

Data set [1] in a line: Enzymatic activity of purified recombinant PR-3 on Boc-Ala-ONP. In kind it is biochemical, human. As for the experimental part:
In order to generate therapeutic-grade PR-3, the Mono-S purified recombinant PR-3 (obtained as described in Example 16) was subjected to size-exclusion chromatography. 0.8 mg of protein from the Mono-S pool was concentrated to 2 mg/ml by Amicon YM10 ultrafiltration and loaded onto a S-300 HR column (1.6×60 cm. Pharmacia Biotechnology, Inc., NJ) and chromatographed with a mobile phase of PBS containing 0.04% Triton X-100. Fractions enriched in PR-3 were detected by assaying for enzymatic activity (Boc-Ala-ONP assay) and analyzing on SDS-PAGE with Coomassie blue staining. A single band of 28 kD was observed. The PR-3 eluted with a retention time correlating to an apparent molecular mass of 35 kD as compared to BSA and chymotrypsinogen A chromatographed in the same buffer. This process produced PR-3 that was ≧95% pure with an overall recovery of about 25% and a lipopolysaccharide content of ≦about 10 ng per mg of protein as measured using an Limulus Amoebocyte Lysate Assay (Associates of Cape Cod, Inc., Woods Hole, Mass.). The purified enzyme has a specific activity of approximately 30 units per mg (where a unit is defined as 1 micromole of product produced from cleavage of Boc-Ala-ONP permin. at 25° C., pH 7.5) and a Kcat of approximately 12 per second.

A short description of data set [2]: Storage stability of active recombinant PR-3. In kind it is physicochemical. The following applies: 4° C.; phosphate buffer pH 7.0 with 0.1% Triton X-100, NaCl eluate. As for the experimental part: The proPR-3 was purified as described above through the Mono-S-Sepharose step and the DPPI activation. At the end of the activation reaction, the PR-3 was diluted 3-fold using deionized water and loaded onto a Pharmacia Mono-S column, previously equilibrated in loading buffer B (10 mM sodium phosphate buffer, pH 7.0, containing 0.1% (v/v) Triton X-100). After washing the column with three bed volumes of loading buffer B, the column was eluted with a 20-minute, 0-0.8 M sodium chloride gradient at 1 ml/min flow rate. PR-3 eluted as the only major peak of protein in the gradient. PR-3 activity was measured across the column by diluting 10 μl of each fraction into 100 mM sodium phosphate buffer containing 10% acetonitrile and 0.5 mM Boc-Ala-ONp. The absorbance at 402 nm of each assay sample was measured after approximately 10 min. Fractions containing activated PR-3 were pooled and stored at 4° C. […] The active PR-3 was stable over 1 month at 4° C. under these conditions

B1: PR-3: purified active recombinant human PR-3 serine protease produced from proPR-3 in Sf9 cells, activated with DPPI (protein)
chain: MAHRPPSPALASVLLALLLSGAARAAEIVGGHEAQPHSRPYMASLQMRGNPGSHFCGGTLIHPSFVLTAAHCLRDIPQRLVNVVLGAHNVRTQEPTQQHFSVAQVFLNNYDAENKLNDILLIQLSSPANLSASVATVQLPQQDQPVPHGTQCLAMGWGRVGAHDPPAQVLQELNVTVVTFFCRPHNICTFVPRRKAGICFGDSGGPLICDGIIQGIDSFVIWGCATRLFPDFFTRVALYVDWIRSTLRRVEAKGRP
Turning to B1, in data set [1] (Boc-Ala-ONP), the Kcat entry is reported as “approximately 12 per second”. The specific activity result in data set [1] (unit = 1 micromole product per min at 25° C., pH 7.5) was “approximately 30 units per mg”. Further, the stability on storage result in data set [2] is listed as “over 1 month”.
